Laboratory results reported in patent US20210292396A1.

What was measured:
Assay in all cases: cell-based or functional assay
[1] = molecular target: Env of HIV isolate 16845-2.22 (clade C) (HIV)
[2] = molecular target: Env of HIV isolate 3326.v4.c3 (clade CD) (HIV)
[3] = molecular target: Env of HIV isolate 426c (clade C) (HIV)
[4] = molecular target: Env of HIV isolate 6535.3 (clade B) (HIV)
[5] = molecular target: Env of HIV isolate 6631.v3.c10 (clade C) (HIV)
[6] = molecular target: Env of HIV isolate A03349M1.vrc4a (clade D) (HIV)
[7] = molecular target: Env of HIV isolate C2101.c1 (clade AE) (HIV)
[8] = molecular target: Env of HIV isolate C3347.c11 (clade AE) (HIV)
[9] = molecular target: Env of HIV isolate CNE3 (clade AE) (HIV)
[10] = molecular target: Env of HIV isolate CNE53 (clade C in Table 7) (HIV)
[11] = molecular target: Env of HIV isolate CNE55 (clade AE) (HIV)
[12] = molecular target: Env of HIV isolate Ce1176.A3 (clade C) (HIV)
[13] = molecular target: Env of HIV isolate DJ263.8 (clade AG) (HIV)
[14] = molecular target: Env of HIV isolate DU156.12 (clade C) (HIV)
[15] = molecular target: Env of HIV isolate HO86.8 (clade B) (HIV)
[16] = molecular target: Env of HIV isolate P0402.c2.11 (clade G) (HIV)
[17] = molecular target: Env of HIV isolate PVO.04 (clade B) (HIV)
[18] = molecular target: Env of HIV isolate X1193.c1 (clade G) (HIV)
[19] = molecular target: Env of HIV isolate X2088.c9 (clade G) (HIV)
[20] = molecular target: Env of HIV isolate X2131.C1.B5 (clade G) (HIV)
[21] = molecular target: Env of HIV isolate ZM106.9 (clade C) (HIV)
[22] = molecular target: Env of HIV isolate ZM109.4 (clade C) (HIV)
[23] = molecular target: Env of HIV isolate ZM197.7 (clade C) (HIV)
[24] = molecular target: HIV Env of isolate 00836-2.5 (HIV)
[25] = molecular target: HIV Env of isolate 0330.v4.c3 (HIV)
[26] = molecular target: HIV Env of isolate 235-47 (HIV)
[27] = molecular target: HIV Env of isolate 242-14 (HIV)
[28] = molecular target: HIV Env of isolate 247-23 (HIV)
[29] = molecular target: HIV Env of isolate 26191-2.48 (HIV)
[30] = molecular target: HIV Env of isolate 263-8 (HIV)
[31] = molecular target: HIV Env of isolate 3589.v1.c4 (HIV)
[32] = molecular target: HIV Env of isolate 3817.v2.c59 (HIV)
[33] = molecular target: HIV Env of isolate 3988.25 (HIV)
[34] = molecular target: HIV Env of isolate 6545.v4.c1 (HIV)
[35] = molecular target: HIV Env of isolate A03349M1.vrc4a (HIV)
[36] = molecular target: HIV Env of isolate AC10.29 (HIV)
[37] = molecular target: HIV Env of isolate BJOX009000.02.4 (HIV)
[38] = molecular target: HIV Env of isolate BJOX028000.10.3 (HIV)
[39] = molecular target: HIV Env of isolate BL01.DG (HIV)
[40] = molecular target: HIV Env of isolate C3347.c11 (HIV)
[41] = molecular target: HIV Env of isolate CH070.1 (HIV)
[42] = molecular target: HIV Env of isolate CH119.10 (HIV)
[43] = molecular target: HIV Env of isolate CH181.12 (HIV)
[44] = molecular target: HIV Env of isolate CM244.ec1 (HIV)
[45] = molecular target: HIV Env of isolate CNE3 (HIV)
[46] = molecular target: HIV Env of isolate CNE57 (HIV)
[47] = molecular target: HIV Env of isolate HT593.1 (HIV)
[48] = molecular target: HIV Env of isolate Q842.d12 (HIV)
[49] = molecular target: HIV Env of isolate SF162.LS (HIV)
[50] = molecular target: HIV Env of isolate WITO.33 (HIV)
[51] = molecular target: HIV Env of isolate X1632.S2.B10 (HIV)
[52] = molecular target: HIV Env of isolate ZM176.66 (HIV)
[53] = molecular target: HIV Env of isolate ZM233.6 (HIV)

With PGT121 (antibody) the IC50, pseudovirus neutralization [1] was 2.72 µg/mL, the IC50, pseudovirus neutralization [2] was over 50 µg/mL and the IC50, pseudovirus neutralization [3] was over 50 µg/mL. It also gave an IC50, pseudovirus neutralization [4] of 0.00633 µg/mL, an IC50, pseudovirus neutralization [5] of over 50 µg/mL and an IC50, pseudovirus neutralization [6] of 0.0747 µg/mL. For the same substance, the IC50, pseudovirus neutralization [7] was over 50 µg/mL, the IC50, pseudovirus neutralization [8] was over 50 µg/mL and the IC50, pseudovirus neutralization [9] was over 50 µg/mL. The IC50, pseudovirus neutralization [10] was 0.0263 µg/mL, the IC50, pseudovirus neutralization [11] was over 50 µg/mL and the IC50, pseudovirus neutralization [12] was 0.0243 µg/mL. It also gave an IC50, pseudovirus neutralization [13] of 0.0577 µg/mL, an IC50, pseudovirus neutralization [14] of 0.0147 µg/mL and an IC50, pseudovirus neutralization [15] of over 50 µg/mL. It also gave an IC50, pseudovirus neutralization [16] of 0.0123 µg/mL, an IC50, pseudovirus neutralization [17] of 0.189 µg/mL and an IC50, pseudovirus neutralization [18] of 0.0457 µg/mL. The IC50, pseudovirus neutralization [19] was 0.00633 µg/mL, the IC50, pseudovirus neutralization [20] was 0.013 µg/mL and the IC50, pseudovirus neutralization [21] was 0.0127 µg/mL. The IC50, pseudovirus neutralization [22] was 1.96 µg/mL, the IC50, pseudovirus neutralization [23] was over 50 µg/mL and the IC80, pseudovirus neutralization [24] was over 50 µg/mL. It also gave an IC80 [25] of 0.211 µg/mL, an IC80 [26] of 0.614 µg/mL and an IC80 [27] of over 50 µg/mL. For the same substance, the IC80, pseudovirus neutralization [28] was over 50 µg/mL, the IC80, pseudovirus neutralization [29] was 0.236 µg/mL and the IC80 [30] was 2.5 µg/mL. For the same substance, the IC80 [31] was over 50 µg/mL, the IC80, pseudovirus neutralization [32] was over 50 µg/mL and the IC80 [33] was 0.0287 µg/mL. It also gave an IC80 [34] of over 50 µg/mL, an IC80, pseudovirus neutralization [35] of 0.359 µg/mL and an IC80 [36] of 0.149 µg/mL. It also gave an IC80 [37] of 9.02 µg/mL, an IC80 [38] of over 50 µg/mL and an IC80 [39] of over 50 µg/mL. For the same substance, the IC80 [40] was over 50 µg/mL, the IC80, pseudovirus neutralization [41] was 0.0423 µg/mL and the IC80, pseudovirus neutralization [42] was 0.0937 µg/mL. It also gave an IC80, pseudovirus neutralization [43] of 0.083 µg/mL, an IC80 [44] of over 50 µg/mL and an IC80 [45] of over 50 µg/mL. For the same substance, the IC80 [46] was 0.0777 µg/mL, the IC80 [47] was over 50 µg/mL and the IC80 [48] was 0.0597 µg/mL. It also gave an IC80 [49] of 0.021 µg/mL, an IC80 [50] of 2.02 µg/mL and an IC80, pseudovirus neutralization [51] of over 50 µg/mL. It also gave an IC80, pseudovirus neutralization [52] of 27.6 µg/mL and an IC80, pseudovirus neutralization [53] of 3.6 µg/mL.
